What was measured:
FGFR1 = FGFR1 (UniProt P11362); assay: phosphorylation enrichment, bacterial display (enrichment ratio); higher = better substrate or ligand; peptides without Tyr show the background
MERTK = MERTK (UniProt Q12866); assay: as above
Hck = Hck (UniProt P08631); assay: as above
AncSZ = assay: as above
Fer (mouse) = assay: as above
FGFR3 = FGFR3 (UniProt P22607); assay: as above
Fes = Fes (UniProt P07332); assay: as above
Fyn = Fyn (UniProt P06241); assay: as above
EPHB2 = EPHB2 (UniProt P29323); assay: as above
c-Abl (mouse) = assay: as above
c-Src = assay: as above
EPHB1 = EPHB1 (UniProt P54762); assay: as above
Chain of EPHB1 (P54762 whole entry, looked up): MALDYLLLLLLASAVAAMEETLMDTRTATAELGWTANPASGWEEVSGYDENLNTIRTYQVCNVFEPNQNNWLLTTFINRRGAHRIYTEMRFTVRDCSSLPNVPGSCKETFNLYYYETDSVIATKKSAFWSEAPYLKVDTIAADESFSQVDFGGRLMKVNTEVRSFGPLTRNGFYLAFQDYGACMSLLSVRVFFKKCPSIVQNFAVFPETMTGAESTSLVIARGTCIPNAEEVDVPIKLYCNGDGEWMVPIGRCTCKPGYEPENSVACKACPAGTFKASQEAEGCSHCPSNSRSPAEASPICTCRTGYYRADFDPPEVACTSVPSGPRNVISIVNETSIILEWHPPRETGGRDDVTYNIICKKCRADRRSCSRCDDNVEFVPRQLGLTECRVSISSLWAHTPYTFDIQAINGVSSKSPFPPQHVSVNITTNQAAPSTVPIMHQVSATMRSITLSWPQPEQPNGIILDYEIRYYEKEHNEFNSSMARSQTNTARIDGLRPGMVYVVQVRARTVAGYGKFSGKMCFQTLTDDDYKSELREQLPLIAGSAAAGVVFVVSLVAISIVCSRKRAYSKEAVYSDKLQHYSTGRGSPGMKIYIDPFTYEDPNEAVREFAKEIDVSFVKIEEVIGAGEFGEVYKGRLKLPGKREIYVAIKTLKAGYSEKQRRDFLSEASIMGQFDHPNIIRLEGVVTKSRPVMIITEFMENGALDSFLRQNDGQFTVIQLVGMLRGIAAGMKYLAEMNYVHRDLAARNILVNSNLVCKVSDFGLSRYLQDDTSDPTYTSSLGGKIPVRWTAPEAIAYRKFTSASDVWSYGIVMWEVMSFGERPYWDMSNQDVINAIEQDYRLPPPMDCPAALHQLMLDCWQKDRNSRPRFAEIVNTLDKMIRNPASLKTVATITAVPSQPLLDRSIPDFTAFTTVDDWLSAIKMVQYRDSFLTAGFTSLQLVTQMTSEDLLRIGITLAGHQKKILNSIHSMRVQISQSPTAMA

Jak2 = Jak2 (UniProt O60674); assay: as above
Chain of Jak2 (O60674 whole entry, looked up): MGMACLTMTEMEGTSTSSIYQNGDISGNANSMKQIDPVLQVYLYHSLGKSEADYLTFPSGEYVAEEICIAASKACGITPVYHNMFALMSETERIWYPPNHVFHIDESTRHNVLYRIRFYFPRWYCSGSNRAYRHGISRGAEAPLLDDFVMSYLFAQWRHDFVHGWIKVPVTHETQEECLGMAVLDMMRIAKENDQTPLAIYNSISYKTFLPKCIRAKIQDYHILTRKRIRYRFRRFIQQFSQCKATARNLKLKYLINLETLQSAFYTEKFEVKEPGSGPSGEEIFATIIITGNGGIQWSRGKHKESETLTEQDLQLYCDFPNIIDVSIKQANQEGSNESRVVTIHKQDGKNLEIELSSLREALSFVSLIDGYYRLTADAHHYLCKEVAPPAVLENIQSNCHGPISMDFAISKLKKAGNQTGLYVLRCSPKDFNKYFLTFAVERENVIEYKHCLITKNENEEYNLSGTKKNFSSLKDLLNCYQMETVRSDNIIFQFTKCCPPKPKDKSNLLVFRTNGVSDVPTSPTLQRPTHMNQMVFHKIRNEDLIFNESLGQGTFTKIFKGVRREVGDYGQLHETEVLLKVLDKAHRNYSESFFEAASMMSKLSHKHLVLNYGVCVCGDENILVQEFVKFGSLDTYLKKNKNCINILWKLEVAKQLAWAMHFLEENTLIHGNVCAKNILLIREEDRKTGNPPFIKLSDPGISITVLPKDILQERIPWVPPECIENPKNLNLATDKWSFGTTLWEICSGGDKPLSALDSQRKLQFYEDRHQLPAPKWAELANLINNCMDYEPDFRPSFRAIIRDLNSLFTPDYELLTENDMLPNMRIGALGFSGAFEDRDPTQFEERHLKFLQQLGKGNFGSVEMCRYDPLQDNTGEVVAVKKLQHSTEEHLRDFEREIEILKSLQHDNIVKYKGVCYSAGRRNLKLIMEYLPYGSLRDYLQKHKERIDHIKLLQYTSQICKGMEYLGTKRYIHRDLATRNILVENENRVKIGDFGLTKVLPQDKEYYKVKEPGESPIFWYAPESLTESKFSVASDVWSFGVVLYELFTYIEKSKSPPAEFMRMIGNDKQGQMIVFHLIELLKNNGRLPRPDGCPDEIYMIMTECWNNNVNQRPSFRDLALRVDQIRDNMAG

Grb2 SH2 = Grb2 SH2 (UniProt P62993); assay: SH2 binding enrichment of the phosphorylated peptide, bacterial display (enrichment ratio); higher = better substrate or ligand; peptides without Tyr show the background
Chain of Grb2 SH2 (P62993 whole entry, looked up): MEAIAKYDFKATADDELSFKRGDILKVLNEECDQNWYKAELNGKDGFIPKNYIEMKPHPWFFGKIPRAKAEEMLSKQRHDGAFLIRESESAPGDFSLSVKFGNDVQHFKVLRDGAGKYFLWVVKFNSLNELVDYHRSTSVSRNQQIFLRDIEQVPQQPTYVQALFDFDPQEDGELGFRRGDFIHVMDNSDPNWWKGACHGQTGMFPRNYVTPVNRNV

SHP2-C SH2 = assay: as above
c-Src SH2 = assay: as above
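Throughout, for SH2 binding enrichment of the phosphorylated peptide, bacterial display: peptide library displayed on the E. coli surface as eCPX fusions, selected cells deep-sequenced, score is each peptide's frequency after selection divided by its frequency in the input.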
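Throughout, for phosphorylation enrichment, bacterial display: 11-residue human phosphosite peptides and single-mutation variants displayed on the E. coli surface, counted by deep sequencing, each peptide's frequency after selection divided by its frequency in the unselected input library; frequency after pTyr selection over input frequency; kinase dosed for 20-30% of maximal phosphorylation in three min.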

Chain of Fyn (P06241 whole entry, looked up): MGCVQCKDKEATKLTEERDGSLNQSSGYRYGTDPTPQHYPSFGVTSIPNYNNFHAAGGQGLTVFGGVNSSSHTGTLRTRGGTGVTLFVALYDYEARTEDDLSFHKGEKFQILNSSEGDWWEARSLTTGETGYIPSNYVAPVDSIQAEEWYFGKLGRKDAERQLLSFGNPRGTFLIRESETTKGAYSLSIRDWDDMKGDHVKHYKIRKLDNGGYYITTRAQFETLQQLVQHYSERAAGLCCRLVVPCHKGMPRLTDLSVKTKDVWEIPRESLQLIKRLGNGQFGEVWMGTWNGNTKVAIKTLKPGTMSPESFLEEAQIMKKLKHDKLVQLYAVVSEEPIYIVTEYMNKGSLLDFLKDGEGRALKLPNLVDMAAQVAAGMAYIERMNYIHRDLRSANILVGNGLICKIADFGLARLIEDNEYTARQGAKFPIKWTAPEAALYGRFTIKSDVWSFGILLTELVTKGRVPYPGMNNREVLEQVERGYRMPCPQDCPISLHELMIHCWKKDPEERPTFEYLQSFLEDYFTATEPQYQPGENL
Chain of MERTK (Q12866 whole entry, looked up): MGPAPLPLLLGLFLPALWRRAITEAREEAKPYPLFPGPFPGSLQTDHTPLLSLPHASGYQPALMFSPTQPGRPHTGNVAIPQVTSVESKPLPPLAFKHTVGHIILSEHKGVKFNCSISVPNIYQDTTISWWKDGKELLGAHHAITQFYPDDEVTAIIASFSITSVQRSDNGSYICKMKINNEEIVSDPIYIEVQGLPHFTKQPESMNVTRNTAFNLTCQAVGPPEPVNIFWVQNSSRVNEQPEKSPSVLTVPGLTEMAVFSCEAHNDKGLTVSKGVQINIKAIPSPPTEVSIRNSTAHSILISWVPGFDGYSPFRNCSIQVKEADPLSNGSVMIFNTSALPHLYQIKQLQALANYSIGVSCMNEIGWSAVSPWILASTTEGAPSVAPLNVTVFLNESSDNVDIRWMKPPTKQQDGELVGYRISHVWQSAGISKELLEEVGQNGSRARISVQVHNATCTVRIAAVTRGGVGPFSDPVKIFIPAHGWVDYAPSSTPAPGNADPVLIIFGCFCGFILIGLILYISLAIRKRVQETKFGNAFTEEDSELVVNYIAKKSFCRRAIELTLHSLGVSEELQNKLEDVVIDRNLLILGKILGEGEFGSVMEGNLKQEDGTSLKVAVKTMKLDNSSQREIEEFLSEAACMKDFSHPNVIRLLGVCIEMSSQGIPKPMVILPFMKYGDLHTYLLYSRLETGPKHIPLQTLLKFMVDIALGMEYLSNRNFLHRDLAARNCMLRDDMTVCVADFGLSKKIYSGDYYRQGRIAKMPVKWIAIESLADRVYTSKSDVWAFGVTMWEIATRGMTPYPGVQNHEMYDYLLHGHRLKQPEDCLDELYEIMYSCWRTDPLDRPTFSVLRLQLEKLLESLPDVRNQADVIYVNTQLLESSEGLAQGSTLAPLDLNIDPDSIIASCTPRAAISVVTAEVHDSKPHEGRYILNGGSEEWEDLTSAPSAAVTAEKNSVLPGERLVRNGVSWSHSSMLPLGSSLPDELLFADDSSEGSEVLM
Chain of FGFR3 (P22607 whole entry, looked up): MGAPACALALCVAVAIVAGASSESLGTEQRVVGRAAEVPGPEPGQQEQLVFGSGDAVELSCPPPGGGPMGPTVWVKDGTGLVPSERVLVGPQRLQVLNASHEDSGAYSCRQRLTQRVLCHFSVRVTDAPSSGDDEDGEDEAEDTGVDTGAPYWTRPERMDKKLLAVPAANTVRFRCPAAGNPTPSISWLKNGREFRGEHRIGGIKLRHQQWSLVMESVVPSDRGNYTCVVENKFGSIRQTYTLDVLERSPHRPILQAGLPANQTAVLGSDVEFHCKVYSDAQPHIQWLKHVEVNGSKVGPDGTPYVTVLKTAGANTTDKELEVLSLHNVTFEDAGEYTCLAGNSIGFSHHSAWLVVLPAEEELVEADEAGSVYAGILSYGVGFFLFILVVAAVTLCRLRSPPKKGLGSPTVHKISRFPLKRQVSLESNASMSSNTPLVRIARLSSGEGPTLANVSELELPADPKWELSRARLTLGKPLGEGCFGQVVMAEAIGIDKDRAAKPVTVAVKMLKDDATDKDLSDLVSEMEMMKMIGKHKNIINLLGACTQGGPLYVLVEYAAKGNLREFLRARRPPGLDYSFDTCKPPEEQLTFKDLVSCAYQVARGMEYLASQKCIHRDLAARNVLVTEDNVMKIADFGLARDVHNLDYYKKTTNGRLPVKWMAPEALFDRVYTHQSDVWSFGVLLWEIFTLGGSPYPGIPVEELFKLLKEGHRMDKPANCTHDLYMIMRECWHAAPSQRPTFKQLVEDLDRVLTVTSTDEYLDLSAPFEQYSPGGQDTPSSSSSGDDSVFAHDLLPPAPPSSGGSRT

Row | Sequence | phosphorylation enrichment (FGFR1) | phosphorylation enrichment (MERTK) | phosphorylation enrichment (Hck) | phosphorylation enrichment (AncSZ) | phosphorylation enrichment (Fer (mouse)) | phosphorylation enrichment (FGFR3) | phosphorylation enrichment (Fes) | phosphorylation enrichment (Fyn) | phosphorylation enrichment (EPHB2) | phosphorylation enrichment (c-Abl (mouse)) | phosphorylation enrichment (c-Src) | phosphorylation enrichment (EPHB1) | phosphorylation enrichment (Jak2) | SH2 binding enrichment (Grb2 SH2) | SH2 binding enrichment (SHP2-C SH2) | SH2 binding enrichment (c-Src SH2)
1 | RRIHSYRGFLW [VHL_Y112_H115Y_YF] | 0.389 | 0.577 | 0.377 | 0.622 | 0.458 | 0.378 | 0.575 | 0.577 | 1.73 | 0.426 | 0.552 | 0.343 | 0.577 | 0.801 | 0.666 | 0.581
2 | RRKRAYVEIEY [MAK16_Y282_Q277R] | 0.731 | 1.22 | 1.13 | 1.37 | 0.996 | 1.18 | 1.21 | 0.667 | 1.06 | 1.04 | 0.999 | 1.02 | 1.54 | 1.32 | 0.938 | 0.37
3 | RRNSPYSQTMK [TET2_Y819] | 2.12 | 0.813 | 0.913 | 1.02 | 0.63 | 0.953 | 1.14 | 0.731 | 0.853 | 1.81 | 1.02 | 1.07 | 1.84 | 0.76 | 0.43 | 0.545
4 | RRNTPYSQTMK [TET2_Y819_S817T] | 0.273 | 0.503 | 0.367 | 0.55 | 0.512 | 0.431 | 0.626 | 0.428 | 0.365 | 0.422 | 0.44 | 0.252 | 0.708 | 1.23 | 1.12 | 0.611
5 | RSAGKDDVYLI [MECP2_Y120_Y120D] | 0.513 | 0.399 | 0.616 | 0.755 | 0.521 | 0.594 | 0.862 | 1.14 | 0.603 | 0.486 | 1.25 | 0.551 | 0.658 | 0.854 | 0.478 | 0.581
6 | RSGIFYKPESL [L2HGDH_Y103_H98R_YF] | 0.572 | 0.499 | 0.716 | 0.994 | 0.458 | 0.702 | 0.866 | 0.512 | 0.567 | 0.706 | 0.751 | 0.547 | 0.647 | 0.913 | 0.894 | 0.572
7 | RTIPDYTSFNT [EPHB2_Y912] | 1.2 | 0.538 | 0.561 | 0.893 | 0.417 | 0.991 | 0.66 | 0.63 | 0.632 | 1.02 | 0.923 | 0.866 | 0.978 | 1.12 | 0.926 | 0.813
8 | RVDRDYVLKST [HTATIP2_Y111_A116T] | 0.526 | 0.487 | 0.578 | 0.961 | 0.511 | 0.529 | 0.823 | 0.65 | 0.659 | 0.369 | 0.388 | 0.492 | 0.436 | 1.01 | 0.843 | 0.436
9 | RVFIKYLPEWT [PSEN1_Y240_L235R] | 0.966 | 0.678 | 0.944 | 2.32 | 1.02 | 1.32 | 2.8 | 0.735 | 1.34 | 1.13 | 0.855 | 1.15 | 1.71 | 1.33 | 1.19 | 0.906
10 | RVFRDYVLKSA [HTATIP2_Y111_D108Y_YF] | 0.79 | 0.548 | 0.591 | 0.889 | 0.527 | 0.605 | 1.15 | 0.572 | 0.533 | 0.999 | 0.45 | 0.648 | 1.05 | 0.668 | 1.27 | 0.749
11 | RYMELYDLNRD [BBS2_Y648] | 1.04 | 1.32 | 1.89 | 1.41 | 1.14 | 1.24 | 1.41 | 1.67 | 1.05 | 0.993 | 4.49 | 1.52 | 1.4 | 0.989 | 0.8 | 5.58
12 | SAEEDYIADAK [KCNT1_Y876_M877I] | 0.617 | 0.456 | 0.554 | 1.22 | 0.608 | 0.797 | 1.48 | 0.515 | 0.703 | 0.931 | 0.608 | 0.602 | 1.2 | 0.983 | 0.709 | 0.683
13 | SAEKAYHEQFS [TUBA1A_Y282_L286F] | 0.557 | 0.424 | 0.458 | 0.664 | 0.394 | 0.459 | 0.701 | 0.519 | 0.393 | 0.454 | 0.441 | 0.401 | 0.663 | 0.983 | 0.565 | 0.512
14 | SARFHYLMAEK [LDHB_Y173_R172H] | 0.445 | 0.499 | 0.455 | 0.666 | 0.473 | 0.751 | 0.661 | 0.564 | 0.403 | 0.372 | 0.403 | 0.463 | 0.455 | 0.957 | 0.601 | 0.455
15 | SARSAYQEAID [SFN_Y151_M155I] | 0.573 | 0.471 | 0.523 | 1.02 | 0.395 | 0.685 | 0.994 | 0.434 | 0.405 | 0.83 | 0.516 | 0.461 | 0.875 | 0.896 | 0.705 | 1.06
16 | SCRENYSDSEE [LEMD3_Y258] | 0.547 | 0.539 | 0.502 | 1.07 | 0.434 | 0.694 | 1.14 | 0.52 | 0.619 | 0.792 | 0.475 | 0.607 | 1 | 1.05 | 0.832 | 0.78
17 | SCRENYSYSEE [LEMD3_Y258_D260Y] | 0.561 | 0.428 | 0.548 | 1.18 | 0.48 | 0.76 | 1.22 | 0.512 | 0.604 | 0.652 | 0.47 | 0.66 | 0.892 | 1.04 | 1.08 | 1.66

Row | Sequence | phosphorylation enrichment (FGFR1) | phosphorylation enrichment (MERTK) | phosphorylation enrichment (Hck) | phosphorylation enrichment (AncSZ) | phosphorylation enrichment (Fer (mouse)) | phosphorylation enrichment (FGFR3) | phosphorylation enrichment (Fes) | phosphorylation enrichment (Fyn) | phosphorylation enrichment (EPHB2) | phosphorylation enrichment (c-Abl (mouse)) | phosphorylation enrichment (c-Src) | phosphorylation enrichment (EPHB1) | phosphorylation enrichment (Jak2) | SH2 binding enrichment (Grb2 SH2) | SH2 binding enrichment (SHP2-C SH2) | SH2 binding enrichment (c-Src SH2)
18 | SDFFAYSPVRE [H6PD_Y449_YF] | 0.422 | 0.473 | 0.68 | 0.928 | 0.821 | 0.675 | 1.02 | 0.514 | 0.591 | 0.615 | 0.573 | 0.614 | 1.01 | 0.798 | 1.06 | 1.37
19 | SDTGQYQCLVF [AXL_Y115] | 1.65 | 1.77 | 3.09 | 1.33 | 2.7 | 1.65 | 1.26 | 2.03 | 0.9 | 1.86 | 1.64 | 0.867 | 0.969 | 0.582 | 0.563 | 0.449
20 | SEASYYKSLNL [NGEF_Y289] | 1.29 | 0.659 | 0.643 | 0.827 | 0.497 | 0.979 | 0.793 | 0.539 | 0.56 | 0.615 | 0.515 | 0.499 | 1.1 | 0.718 | 0.644 | 0.588
21 | SECCKYKIDNP [OSMR_Y689] | 0.756 | 0.419 | 0.381 | 0.642 | 0.407 | 0.488 | 0.786 | 0.411 | 0.416 | 0.539 | 0.46 | 0.464 | 0.658 | 0.94 | 0.393 | 0.472
22 | SEDSEYYKAFE [CASQ2_Y178] | 0.58 | 0.494 | 0.61 | 1.71 | 0.535 | 0.98 | 1.16 | 0.621 | 0.611 | 0.695 | 0.698 | 0.656 | 1.17 | 0.827 | 0.614 | 0.558
23 | SEPSGYQDNIA [DES_Y363_A360P] | 0.488 | 0.426 | 0.505 | 1.02 | 0.525 | 0.708 | 1.05 | 0.724 | 0.595 | 0.753 | 0.47 | 0.546 | 0.953 | 0.743 | 0.92 | 0.476
24 | SETDDYAEIID [PTK2_Y397] | 0.748 | 0.625 | 0.702 | 1.53 | 0.688 | 1.01 | 1.6 | 0.573 | 0.838 | 1.05 | 0.744 | 0.877 | 1.57 | 1.04 | 0.627 | 0.561
25 | SFCFRYRCAAQ [SUMF1_Y344_R349Q_YF] | 0.47 | 0.553 | 0.514 | 1.25 | 0.402 | 0.463 | 0.762 | 0.411 | 0.523 | 0.682 | 0.555 | 0.427 | 0.745 | 1.52 | 2.02 | 1.45
26 | SFGMVYEGNAR [INSR_Y1038] | 0.41 | 0.323 | 0.784 | 0.629 | 0.377 | 0.474 | 0.775 | 0.526 | 0.413 | 0.616 | 0.966 | 0.479 | 0.672 | 0.879 | 0.798 | 0.536
27 | SGFESYGSSSF [RPA2_Y9_YF] | 0.443 | 0.348 | 0.481 | 0.591 | 0.389 | 0.539 | 0.601 | 0.448 | 0.432 | 0.436 | 0.368 | 0.433 | 0.436 | 0.761 | 0.574 | 0.404
28 | SHNKFYMLVAH [MFSD8_Y134_R139H_YF] | 0.652 | 0.583 | 0.695 | 1.42 | 0.791 | 0.99 | 1.35 | 0.554 | 0.668 | 0.922 | 0.447 | 0.865 | 1.18 | 1.25 | 1.28 | 0.978
29 | SHRQDYLVGNK [GSTA1_Y147_G144R] | 0.324 | 0.311 | 0.397 | 0.441 | 0.334 | 0.415 | 0.665 | 0.435 | 0.431 | 0.867 | 0.385 | 0.488 | 0.466 | 0.55 | 0.802 | 0.501
30 | SIKGKYVTALY [KCNH2_Y611_D609G] | 0.367 | 0.358 | 0.465 | 0.498 | 0.329 | 0.357 | 0.552 | 0.432 | 0.374 | 0.517 | 0.318 | 0.366 | 0.431 | 0.826 | 0.776 | 0.472
31 | SLAARYFNWVC [FLT4_Y1230_S1235C_YF] | 0.661 | 0.514 | 0.435 | 1.21 | 0.546 | 0.822 | 1.2 | 0.38 | 0.656 | 0.899 | 0.397 | 0.61 | 0.997 | 2.08 | 1.59 | 1.43
32 | SLAARYYNWVS [FLT4_Y1230] | 5.38 | 5.97 | 0.569 | 1.06 | 0.817 | 3.55 | 1.15 | 0.512 | 0.83 | 0.933 | 0.746 | 0.756 | 1.48 | 14.2 | 2.19 | 3.84
33 | SLDLSYYTTSS [EMD_Y181_P183T] | 0.872 | 0.614 | 0.576 | 0.921 | 0.462 | 0.989 | 1.12 | 0.53 | 0.601 | 0.976 | 0.755 | 0.596 | 1.45 | 0.955 | 0.851 | 1.58

Source: the supplement of paper PMC10065799, “High-throughput profiling of sequence recognition by tyrosine kinases and SH2 domains using bacterial peptide display” (eLife, 2023)
